Results on 5 molecules are retold here after article PMC2728795 (Biochemistry, 2009).

Substitutions are numbered along the chain they refer to. Names and notes keep the numbering of the source.

In the assay the target is F-actin (freshly polymerized actin) (UniProt P68135 1-377). As to the kind of experiment: co-sedimentation.

B1: GST(541–605)PRG (domain or fragment)
chain: GKPKSSSQSTFHIPLSPVEVKPGNVRNIIQHFENNQQYDAPEPGTQRLSTGSFPEDLLESDSSRS
As for B1, the “percent bound at 5 µM F-actin” value is about 75%.

B2: GST(541–605, I568A)PRG (domain or fragment)
chain: B1 chain with I28A
As for B2, the “percent bound at 5 µM F-actin” value is about 25%.

B3: GST(541–605, F572A)PRG (domain or fragment)
chain: B1 chain with F32A
Regarding B3, the “percent bound at 5 µM F-actin” value was about 25%.

B4: GST(541–605, I569A)PRG (domain or fragment)
chain: B1 chain with I29A
As for B4, the “percent bound at 5 µM F-actin” value is about 25%.

B5: GST(541–605, E573A)PRG (domain or fragment)
chain: B1 chain with E33A
Take B5: the “percent bound at 5 µM F-actin” value was about 25%.
